The results in this text go back to article PMC10288639.

One assay concerns the target WT HLA-A*02:01/β2m. Nature of the assay: fluorescence polarisation. A general note: In fluorescence polarisation assays a small probe gives low polarisation when free and higher when bound to something large.
Assay [1] deals with G120C/H31C HLA-A*02:01/β2m complex (open HLA-A*02:01). The experiment in a line: fluorescence polarisation.

Where only a bound is given, the exact number is not on record here.

TAX9 (peptide): the IC50 (in the assay with WT HLA-A*02:01/β2m; in assay [1]) was 250 nM throughout. On to “fluorophore-labeled TAX9 (TAMRA-TAX9) (peptide)”, for which the fold of the apparent association rate constant k^app on over WT in assay [1] was > 10 fold.
